The assay concerns the target T1, Soluble Aβ 1-40 (UniProt P05067 672-711).
T1 construct: domain: Aβ 1-40
Description: SPR (BIAcore), alternate method: antibody captured on protein A or A/G, Aβ 1-40 in flow, 5 h dissociation, 1:1 model with mass transfer; alternate method: antibody captured on protein A or A/G, 5 h dissociation. A general note: In SPR one partner is held on a chip, and binding of the other changes the refractive index at the surface.
Description: Protein A or protein A/G is immobilized via amine coupling to flow cells 1 and 2 of a B1 or CM5 sensor chip (BIAcore). The test antibody is then captured in flow cell 2 at desired levels (usually a 10-60 second injection of antibody) and 5 minutes is allowed for the antibody to stabilize. […] Each concentration is injected over the surface for 5 minutes at a flow rate of 50 μL/min. […] Aβ 1-40 and antibody are then eluted from both flow cells with a 40 second injection of glycine (pH 1.5). The signal is allowed to stabilize for 2 minutes before the next cycle. The data from flow cell 1 is subtracted from flow cell 2 to account for any bulk shifts due to buffer differences or non-specific binding to the sensor chip or protein A. The various concentrations are injected randomly and each concentration is run in duplicate. Two 0 nM runs are used to control for any dissociation of antibody from the protein A or A/G capture surface. The data is analyzed using the Biaevalution software. A 1:1 model with mass transfer and a local Rmax is used as the best fit for the data.

B1: humanized 266 antibody (antibody, human IgG1, kappa, V domains shown)
VH: EVQLVESGGGLVQPGGSLRLSCAASGFTFSRYSMSWVRQAPGKGLELVAQINSVGNSTYYPDTVKGRFTISRDNAKNTLYLQMNSLRAEDTAVYYCASGDYWGQGTLVTVSS
VL: DVVMTQSPLSLPVTLGQPASISCRSSQSLIYSDGNAYLHWFLQKPGQSPRLLIYKVSNRFSGVPDRFSGSGSGTDFTLKISRVEAEDVGVYYCSQSTHVPWTFGQGTKVEIKR
The term Kd denotes the constant that tells how readily two partners part at equilibrium. A high value points to lower affinity. Molecule B1 displayed a Kd of 0.4 nM.

Source of the values: patent publication US20060073149A1 (published 2006).
